The DeepSol protein solubility set

assay: soluble on expression in E. coli; label from the status in PepcDB or PDB records

Sequence | soluble on expression in E. coli
MNASDFRRRGKEMVDYMADYLEGIEGRQVYPDVQPGYLRPLIPATAPQEPDTFEDILQDVEKIIMPGVTHWHSPYFFAYFPTASSYPAMLADMLCGAIGCIGFSWAASPACTELETVMMDWLGKMLQLPEAFLAGEAGEGGGVIQGSASEATLVALLAARTKVVRRLQAASPGLTQGAVLEKLVAYASDQAHSSVERAGLIGGVKLKAIPSDGKFAMRASALQEALERDKAAGLIPFFVVATLGTTSCCSFDNLLEVGPICHEEDIWLHVDAAYAGSAFICPEFRHLLNGVEFADSFNFNPHKWLLVNFDCSAMWVKRRTDLTGAFKLDPVYLKHSHQGSGLITDYRHWQLPLGRRFRSLKMWFVFRMYGVKGLQAYIRKHVQLSHEFEAFVLQDPRFEVCAEVTLGLVCFRLKGSDGLNEALLERINSARKIHLVPCRLRGQFVLRFAICSRKVESGHVRLAWEHIRGLAAELLAAEEGKAEIKS | soluble
MNCRLGCGACCIAPSISSVIPGMPNGKAAGERCVQLSDDNLCLIFGSPERPAVCCDFEASLDVCGHSNEEALWLITNLESQTS | soluble
MNDATPDQLRTGPSRETPRFQQIVQDIKRRIADGSLSEHAALPSERRIAEETGISRMTARRALDALEAEGLVYSADRRGRFVSPKRVSYDVSNLVSFVADAESRGTALGIEVIRAQEGKADPALAARLELEPGAAIHEYTRLFRQDGHAIFVETEYVDARRCPDFLSHDLHQSTTRLLESQYDLVARTGDIVIRMRGAHPEETHLLGLAQSQSGIELTQVIRDASGRPFCFGRQFWRGEMAEFSARAIVGGSIHG | not soluble
MNDFHRDTWAEVDLDAIYDNVENLRRLLPDDTHIMAVVKANAYGHGDVQVARTALEAGASRLAVAFLDEALALREKGIEAPILVLGASRPADAALAAQQRIALTVFRSDWLEEASALYSGPFPIHFHLKMDTGMGRLGVKDEEETKRIVALIERHPHFVLEGLYTHFATADEVNTDYFSYQYTRFLHMLEWLPSRPPLVHCANSAASLRFPDRTFNMVRFGIAMYGLAPSPGIKPLLPYPLKEAFSLHSRLVHVKKLQPGEKVSYGATYTAQTEEWIGTIPIGYADGWLRRLQHFHVLVDGQKAPIVGRICMDQCMIRLPGPLPVGTKVTLIGRQGDEVISIDDVARHLETINYEVPCTISYRVPRIFFRHKRIMEVRNAIGRGESSA | soluble
MNDGKISILVLGADKAQGGQSRTDSIMVVQYDFINKKMKMMSVMRDIYADIPGYGKHKINSAYALGGPKLLRKTLDKNLGINPEYYAVVDFTGFEKMIDELMPEGVPINVEKDMSKNIGVSLKKGNHRLNGKELLGYARFRHDPEGDFGRVRRQQQVMQTLKKEMVNFRTVVKLPKVAGILRGYVNTNIPDSGIFQTGLSFGIRGEKDVKSLTVPIKNSYEDVNTNTDGSALQINKNTNKQAIKDFLDEDLEHHHHHH | soluble
MNDTPDDTFVSGYLLYLLAASSEEASAQFHDHIRAQGLRVPEWRVLACLVDNDAMMITRLAKLSLMEQSRMTRIVDQMDARGLVTRVADAKDKRRVRVRLTDDGRALAESLVASARAHETRLLSALADTDAARIKGVLRTLLDVLDRPRESR | soluble
MNEHHQPFEEIKLINANGAEQWSARQLGKLLGYSEYRHFIPVLTRAKEACENSGHTIDDHFEEILDMVKIGSNAKRALKDIVLSRYACYLVVQNGDPAKPVIAAGQTYFAIQTRRQELADDEAFKQLREDEKRLFLRNELKEHNKQLVEAAQQAGVATATDFAIFQNHGYQGLYGGLDQKAIHQRKGLKKNQKILDHMGSTELAANLFRATQTEEKLKRDGVNSKQQANTTHFDVGRKVRQTIQELGGTMPEELPTPQVSIKQLENSVKITEKK | soluble
MNEILKTEDEVVRWSVKKINDDTTLIEFELKRDLVPEDLKKINPPDAVKNKFANTFIVLSGRGPIWLYGFLIHFYHPTKGIGVFDPRLGGAVVVSSHSPNKKVGDVIKWEG | not soluble
MNEMTLLYSPSCWVPGKNRDEVMNDFFAGIKNAFEALKNDEKIPRKENVAYGMEENQKVDIWGDASDKLLIFIHGGYWAAGTRKDCLTPARCALNNEYAFASVGYGLSTEGRTLTETVEDVVNGVDFILKLYPNVSNVLVGGHSAGAHLAMNAVARLRNPRIRGLLLFSGCYFLEELIGTEIGTDINLTTDQAKLNSCDLSKLDGLKLDSLVILGLQEAPKLIEQNRDFVAQQGQSRIEEFPNSGHYTIMTNLLNHTSGEYLAMEKFLKNF | not soluble
MNEQVHARLKALARPMTGEEYLESLRDGREVYFMGERVKDVTTHPAFRNTARMFARWYDRLHELHKEDLERSKDPSGWKWTVPTESGNGWTHPFFVGPRSAEDLLKARDTIAELQRTVYGWGGRSPDYKAAFVGTLGPNAEFYAPYQENARRWYKETQEKLLYWNHAIVNPPVDRHKPVEEVGDVYMHVERETDAGIVVSGAKVVATGSAFTHVNFIAHYGPLPIKDKKFALIFVVPMDAKGVKLISRASYEFIAAKTGSPFDYPLSSRLDENDAILVFDNVLVPWENVFVYGDVEKVNAFFPLSGFVHRFPFQGCTRLAVKLDFIAGLTMKALDVTGASQFRGVQARLGEILTYRNLFWALTEAMARDPMPWVDGYVLPNLWAGLTYRVLAPEVYPKIKDIIERDLASALIYLPSHAKDFQNPQIRRYLDQYVRGNGVDAVTRVKIMKALWDAVGTEFGGRHELYERNYAGNHENIRIEVLGAMEAAGVNEALRAFVDKFLGEYDLEGWKVPDLINPTEA | soluble
MNEQWLEHLPLKDIKEISPVSGGDVNEAYRVETDTDTFFLLVQRGRKESFYAAEIAGLNEFERAGITAPRVIASGEVNGDAYLVMTYLEEGASGSQRQLGQLVAQLHSQQQEEGKFGFSLPYEGGDISFDNHWQDDWCTIFVDKRLDHLKDELLNRGLWDANDIKVYDKVRRQIVAELEKHQSKPSLLHGDLWGGNYMFLKDGRPALFDPAPLYGDREFDIGITTVFGGFTSEFYDAYNKHYPLAKGASYRLEFYRLYLLMVHLLKFGEMYRDSVAHSMNKILQDTTSLEHHHHHH | not soluble
MNGASPAHSLVSTTAVAGGGGSSGAAAGLDDFHFPPDIPSMQERKDEAMRVLKADLMTELDKEVKSLEEDSWMFEGPRSRIHLISRRGNFLKKGGEVKLW | not soluble
MNGGCDLWIGCARWLRDMKVLTTDKNGTMLEFASVLRDGILLCRLANTLVPNGIDQKKIMRTNQPSPFLCCNNINYFAMFCKTYFNLEDADLFTAEDLYYMNGFQKVLKTLSFLSHTKESLSRGVDPFPDTDNNQEGTSNGSEFEDDVEIYQSLHDNIENVDPNRTIYGPITSADPEEQQSEQLYDRIVTNRKPSMNENDLQNTPTLKRNRCIRELYDTEKNYVAQALVTIIKTFYEPLKGIIPTSDYNIIFGNIEEINVLHTALLADLEYPVKVALGLSDATPPRPISLNECVPQTIGEVFIKYRDQFLAYGKYCSNLPDSRKLSNELLKTNEFISRNINELTAQGNCKFGMNDLLCVPFQRLTKYPLLLKELQKKTDLASPDRKSLEEAVEVMEDVCNYINEESRDTNAIKVIDEIEQSITDLSMPLNVKLHDYGRVNLDGEVKMAESTLTQAGKPKQRYIFLFDKVIVVCKAANKVMAAKTTGASARTNTFTYKNAYVMSELTIDKNASLDVKSGGTITRRTQYVIIMTRDRNENNEITQLTFYFKNEATRNNWMTALLLSKSNVSPTDYLRDTNHKVAFHSFRVDVKNPATCDVCDKLMKGLQYQGYKCEFHEGDIVVANSNSTPSDLSYLQFAKGDRIEVIKMQGHNRFTGCLINNRNRTGLVHLDHVSQSRTTSMIGLSPIDSPAGSIAPRVVRNESTVLPNKLLSDGSSRSLSGPHGSRSSRNSSSSTINGSMDSVPRQQDYVNTEISEFLWYMGEMERAKAESTLKGTPNGTFLVRYSKNRKQTAISLSYKNDVKHMIIEQNSDGKVYLDEDYIFNSTVELVQYYRSNNLIEIFAALDTCLKNPYSQCKVFKAVHDYDAPSPNNEGKFLSFKTGDIVVLLDTVGEDRGWWKGQVNNKSGFFPLSYVKPYDPATEGSSSPVTPTSSSS | not soluble
MNGGTFTTGKEKERAGIYFNFKTTAQERVSLSERGTVALPVASSWGEAKTFVSISSVEDLNKKVGLSIDDPSLLLLREAKKNAKTVLMYRLTEGVRASADIAEGVKATAVYGGTKGNDIIIRINQNVLDANSFDVTTYMDESEVDKQTVKKAEELTANGYVTFTGTGDLSSTIPLTGSEGDTAAETLNASAGIRLSGGTDKAPVNSDYTDFLAAAETESFDVIALPVAEGDQLKATFAAFIKRLRDGQGQKVQGVTANYAGDYEGIINVTEGVLLEDGTEVTPDKATAWVAGASAGATFNQSLTFVEYEGAVDVLHRLDHDTIVERLGKGEFLFTFDARDKSVSVEKDINSLVTFTAEKNKKFAKNKIVRVLDAVNNDLTRELKALIKSRKGSGSDIPASEDGLQYVKTMITQYMTTLQDAGGITGFDSDEDITISMNEDRDGFLIDLLYSLSTQQKNSTLMWRLEHHHHHH | soluble
MNGIFIEDKRLGIRLPHLDKPWEDYSPNEQEAILLEWETIRGLIPDRIAELEREINKKQDELGQEADFARSCQLNADIAELASIVNDLWIWYRIVPSVSSRHGKKRVEKP | not soluble
MNGKRPAEPGPARVGKKGKKEVMAEFSDAVTEETLKKQVAEAWSRRTPFSHEVIVMDMDPFLHCVIPNFIQSQDFLEGLQKELMNLDFHEKYNDLYKFQQSDDLKKRREPHISTLRKILFEDFRSWLSDISKIDLESTIDMSCAKYEFTDALLCHDDELEGRRIAFILYLVPPWDRSMGGTLDLYSIDEHFQPKQIVKSLIPSWNKLVFFEVSPVSFHQVSEVLSEEKSRLSISGWFHGPSLTRPPNYFEPPIPRSPHIPQDHEILYDWINPTYLDMDYQVQIQEEFEESSEILLKEFLKPEKFTKVCEALEHGHVEWSSRGPPNKRFYEKAEESKLPEILKECMKLFRSEALFLLLSNFTGLKLHFLAPSEEDEMNDKKEAETTDITEEGTSHSPPEPENNQMAISNNSQQSNEQTDPEPEENETKKESSVPMCQGELRHWKTGHYTLIHDHSKAEFALDLILYCGCEGWEPEYGGFTSYIAKGEDEELLTVNPESNSLALVYRDRETLKFVKHINHRSLEQKKTFPNRTGFWDFSFIYYE | not soluble
MNGSKENAMKIDLNSDMGEGFGPYRLCDDEAMMKIVSSANIACGFHGGDPDTMARMVRLAKANGVGIGAHPGLPDRAGFGRREIPFQPDELRQQMLYQLGALMAIAGAEGMKVGHFSFHAAMGNMVNRDPVLADLMMNAIATVDPRLVVFVTPESEIERAAKRAGLKTLALFLADRAYDAEGRLVARGLPGALVKDETSVRARVRRFLTHGQVEAIDGTIIAMPAHSILVHSDTPGSLELARIIRSEIEASGATLAPAAEHAALEHHHHHH | soluble
MNGTGNTILVTGGTSGIGLGLALRLHKAGNKVIIAGRRKALLDKIVSEHPGIESVVLDVTDPHSIQHSSEALAISHPNLNVLINNAGIMHWEDLTDAKYLSTAENIVTTNLLGTIRMVYAFTPNLLKQPSATIVNVSSALAFVPLPATPTYSATKAAVHSFTQSLRVQLADSPVEVIELAPPGVRTTLLGQENDEHAMPLEAFLDEIFKLLDISPTPQELVVERAKPLRFAEANGSHGEVLKMLAGYKPPAE | not soluble
MNHDIDIKKVRLNCFRQSKVPGEFMLQMRIPGGIVDAKYLSQIQEIAETWGNGTFHMGMRQTFNIPGIKYENIQAVNKFIENYLQEVEVDRCNCDMKVDENGYPTIGARNVMACIGNSHCIKANVDTKDMANKIEKLVFPSHYHIKVSVAGCPNDCAKGHFQDFGVIGQARMEYHEERCIGCGACVRACEHHATRVLSLNDKGLVDKDPCCCVGCGECVLACPASAWTRKPEKFYRIVIGGRTGKQTPRMGKTFINFATEEVVLGIFANWQKFSAWALDYKPEYLHGGHLIDRAGYHKFKEIILDGVELNPEALVADNIFWAETEYRSNFNVKPIKMHKTIESNRPLRLEHHHHHH | not soluble
